B1: ALK tyrosine kinase receptor (Homo sapiens), Q9UM73 (parent)
chain: MGAIGLLWLLPLLLSTAAVGSGMGTGQRAGSPAAGPPLQPREPLSYSRLQRKSLAVDFVVPSLFRVYARDLLLPPSSSELKAGRPEARGSLALDCAPLLRLLGPAPGVSWTAGSPAPAEARTLSRVLKGGSVRKLRRAKQLVLELGEEAILEGCVGPPGEAAVGLLQFNLSELFSWWIRQGEGRLRIRLMPEKKASEVGREGRLSAAIRASQPRLLFQIFGTGHSSLESPTNMPSPSPDYFTWNLTWIMKDSFPFLSHRSRYGLECSFDFPCELEYSPPLHDLRNQSWSWRRIPSEEASQMDLLDGPGAERSKEMPRGSFLLLNTSADSKHTILSPWMRSSSEHCTLAVSVHRHLQPSGRYIAQLLPHNEAAREILLMPTPGKHGWTVLQGRIGRPDNPFRVALEYISSGNRSLSAVDFFALKNCSEGTSPGSKMALQSSFTCWNGTVLQLGQACDFHQDCAQGEDESQMCRKLPVGFYCNFEDGFCGWTQGTLSPHTPQWQVRTLKDARFQDHQDHALLLSTTDVPASESATVTSATFPAPIKSSPCELRMSWLIRGVLRGNVSLVLVENKTGKEQGRMVWHVAAYEGLSLWQWMVLPLLDVSDRFWLQMVAWWGQGSRAIVAFDNISISLDCYLTISGEDKILQNTAPKSRNLFERNPNKELKPGENSPRQTPIFDPTVHWLFTTCGASGPHGPTQAQCNNAYQNSNLSVEVGSEGPLKGIQIWKVPATDTYSISGYGAAGGKGGKNTMMRSHGVSVLGIFNLEKDDMLYILVGQQGEDACPSTNQLIQKVCIGENNVIEEEIRVNRSVHEWAGGGGGGGGATYVFKMKDGVPVPLIIAAGGGGRAYGAKTDTFHPERLENNSSVLGLNGNSGAAGGGGGWNDNTSLLWAGKSLQEGATGGHSCPQAMKKWGWETRGGFGGGGGGCSSGGGGGGYIGGNAASNNDPEMDGEDGVSFISPLGILYTPALKVMEGHGEVNIKHYLNCSHCEVDECHMDPESHKVICFCDHGTVLAEDGVSCIVSPTPEPHLPLSLILSVVTSALVAALVLAFSGIMIVYRRKHQELQAMQMELQSPEYKLSKLRTSTIMTDYNPNYCFAGKTSSISDLKEVPRKNITLIRGLGHGAFGEVYEGQVSGMPNDPSPLQVAVKTLPEVCSEQDELDFLMEALIISKFNHQNIVRCIGVSLQSLPRFILLELMAGGDLKSFLRETRPRPSQPSSLAMLDLLHVARDIACGCQYLEENHFIHRDIAARNCLLTCPGPGRVAKIGDFGMARDIYRASYYRKGGCAMLPVKWMPPEAFMEGIFTSKTDTWSFGVLLWEIFSLGYMPYPSKSNQEVLEFVTSGGRMDPPKNCPGPVYRIMTQCWQHQPEDRPNFAIILERIEYCTQDPDVINTALPIEYGPLVEEEEKVPVRPKDPEGVPPLLVSQQAKREEERSPAAPPPLPTTSSGKAAKKPTAAEISVRVPRGPAVEGGHVNMAFSQSNPPSELHKVHGSRNKPTSLWNPTYGSWFTEKPTKKNNPIAKKEPHDRGNLGLEGSCTVPPNVATGRLPGASLLLEPSSLTANMKEVPLFRLRHFPCGNVNYGYQQQGLPLEAATAPGAGHYEDTILKSKNSMNQPGP
partner: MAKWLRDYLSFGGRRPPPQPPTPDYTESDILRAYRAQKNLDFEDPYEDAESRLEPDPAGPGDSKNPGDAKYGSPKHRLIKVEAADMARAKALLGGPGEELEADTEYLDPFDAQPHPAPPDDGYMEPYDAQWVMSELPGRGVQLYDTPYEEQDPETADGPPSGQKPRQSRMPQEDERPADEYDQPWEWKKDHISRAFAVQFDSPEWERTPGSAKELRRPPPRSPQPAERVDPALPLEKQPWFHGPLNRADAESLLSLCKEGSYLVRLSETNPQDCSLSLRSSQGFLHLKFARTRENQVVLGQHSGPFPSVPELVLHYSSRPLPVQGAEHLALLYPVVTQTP
B2: ALK tyrosine kinase receptor (Homo sapiens), Q9UM73 (parent)
chain: B1 chain
partner: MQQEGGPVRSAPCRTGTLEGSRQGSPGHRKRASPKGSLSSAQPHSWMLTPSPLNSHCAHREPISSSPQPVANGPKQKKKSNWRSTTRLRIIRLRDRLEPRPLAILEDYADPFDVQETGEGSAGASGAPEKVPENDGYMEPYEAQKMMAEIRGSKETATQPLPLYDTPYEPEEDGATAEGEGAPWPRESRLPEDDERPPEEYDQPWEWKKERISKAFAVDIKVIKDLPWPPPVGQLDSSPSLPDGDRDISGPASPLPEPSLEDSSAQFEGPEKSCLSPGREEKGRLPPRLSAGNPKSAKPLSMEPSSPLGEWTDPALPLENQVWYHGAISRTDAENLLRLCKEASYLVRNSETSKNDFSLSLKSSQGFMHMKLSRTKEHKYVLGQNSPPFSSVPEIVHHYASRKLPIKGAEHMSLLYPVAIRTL
B3: ALK tyrosine kinase receptor (Homo sapiens), Q9UM73 (parent)
chain: B1 chain
partner: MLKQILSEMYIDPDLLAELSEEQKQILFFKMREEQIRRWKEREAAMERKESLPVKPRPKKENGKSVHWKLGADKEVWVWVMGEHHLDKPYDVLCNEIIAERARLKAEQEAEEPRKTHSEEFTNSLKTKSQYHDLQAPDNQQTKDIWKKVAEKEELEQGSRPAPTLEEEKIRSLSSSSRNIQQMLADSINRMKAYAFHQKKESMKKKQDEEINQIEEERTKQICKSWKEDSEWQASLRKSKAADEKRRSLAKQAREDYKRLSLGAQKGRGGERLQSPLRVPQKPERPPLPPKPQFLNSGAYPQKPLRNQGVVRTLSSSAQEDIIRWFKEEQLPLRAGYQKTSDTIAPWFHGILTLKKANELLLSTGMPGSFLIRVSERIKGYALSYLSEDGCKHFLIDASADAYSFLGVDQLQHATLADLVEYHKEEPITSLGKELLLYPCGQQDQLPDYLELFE
B4: ALK tyrosine kinase receptor (Homo sapiens), Q9UM73 (parent)
chain: B1 chain
partner: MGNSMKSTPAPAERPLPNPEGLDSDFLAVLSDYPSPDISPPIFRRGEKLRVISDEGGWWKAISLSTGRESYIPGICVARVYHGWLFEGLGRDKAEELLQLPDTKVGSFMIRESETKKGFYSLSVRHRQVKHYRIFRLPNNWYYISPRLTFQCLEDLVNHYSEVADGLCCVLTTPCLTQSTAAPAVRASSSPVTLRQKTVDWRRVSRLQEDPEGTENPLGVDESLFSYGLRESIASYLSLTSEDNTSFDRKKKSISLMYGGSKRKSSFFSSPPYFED
B5: ALK tyrosine kinase receptor (Homo sapiens), Q9UM73 (parent)
chain: B1 chain
partner: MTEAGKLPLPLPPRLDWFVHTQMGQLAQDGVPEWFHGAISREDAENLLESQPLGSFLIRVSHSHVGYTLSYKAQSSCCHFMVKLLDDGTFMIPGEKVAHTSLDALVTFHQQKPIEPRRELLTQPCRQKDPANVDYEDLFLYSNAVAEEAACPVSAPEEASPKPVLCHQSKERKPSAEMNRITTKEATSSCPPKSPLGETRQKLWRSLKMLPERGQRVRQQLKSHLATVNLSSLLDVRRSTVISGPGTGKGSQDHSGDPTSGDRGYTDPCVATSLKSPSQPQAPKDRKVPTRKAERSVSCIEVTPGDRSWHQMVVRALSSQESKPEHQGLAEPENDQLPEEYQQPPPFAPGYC
B6: ALK tyrosine kinase receptor (Homo sapiens), Q9UM73 (parent)
chain: B1 chain
partner: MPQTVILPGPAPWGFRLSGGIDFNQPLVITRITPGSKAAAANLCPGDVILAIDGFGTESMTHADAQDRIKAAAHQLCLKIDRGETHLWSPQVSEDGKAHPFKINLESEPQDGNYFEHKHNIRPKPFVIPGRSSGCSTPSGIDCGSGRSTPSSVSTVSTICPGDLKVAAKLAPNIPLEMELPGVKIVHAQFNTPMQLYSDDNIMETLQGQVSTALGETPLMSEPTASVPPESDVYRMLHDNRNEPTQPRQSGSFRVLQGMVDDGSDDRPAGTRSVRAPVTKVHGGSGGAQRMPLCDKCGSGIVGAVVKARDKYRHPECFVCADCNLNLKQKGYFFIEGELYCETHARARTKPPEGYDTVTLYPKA
B7: ALK tyrosine kinase receptor (Homo sapiens), Q9UM73 (parent)
chain: B1 chain
partner: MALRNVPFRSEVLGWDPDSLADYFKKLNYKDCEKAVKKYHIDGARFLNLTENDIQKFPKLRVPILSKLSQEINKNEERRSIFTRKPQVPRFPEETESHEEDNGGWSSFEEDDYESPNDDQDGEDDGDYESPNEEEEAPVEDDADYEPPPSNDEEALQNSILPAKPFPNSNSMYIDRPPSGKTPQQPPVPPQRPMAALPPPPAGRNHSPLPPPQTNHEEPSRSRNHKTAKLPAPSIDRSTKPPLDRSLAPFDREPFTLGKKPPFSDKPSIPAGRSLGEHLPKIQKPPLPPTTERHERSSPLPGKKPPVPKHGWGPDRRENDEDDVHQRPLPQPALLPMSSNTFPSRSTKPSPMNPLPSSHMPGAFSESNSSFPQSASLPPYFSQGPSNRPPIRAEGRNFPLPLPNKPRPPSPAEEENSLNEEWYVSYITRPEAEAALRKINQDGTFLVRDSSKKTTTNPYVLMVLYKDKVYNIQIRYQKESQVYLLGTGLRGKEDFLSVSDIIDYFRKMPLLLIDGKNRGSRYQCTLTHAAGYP
B8: ALK tyrosine kinase receptor (Homo sapiens), Q9UM73 (parent)
chain: B1 chain
partner: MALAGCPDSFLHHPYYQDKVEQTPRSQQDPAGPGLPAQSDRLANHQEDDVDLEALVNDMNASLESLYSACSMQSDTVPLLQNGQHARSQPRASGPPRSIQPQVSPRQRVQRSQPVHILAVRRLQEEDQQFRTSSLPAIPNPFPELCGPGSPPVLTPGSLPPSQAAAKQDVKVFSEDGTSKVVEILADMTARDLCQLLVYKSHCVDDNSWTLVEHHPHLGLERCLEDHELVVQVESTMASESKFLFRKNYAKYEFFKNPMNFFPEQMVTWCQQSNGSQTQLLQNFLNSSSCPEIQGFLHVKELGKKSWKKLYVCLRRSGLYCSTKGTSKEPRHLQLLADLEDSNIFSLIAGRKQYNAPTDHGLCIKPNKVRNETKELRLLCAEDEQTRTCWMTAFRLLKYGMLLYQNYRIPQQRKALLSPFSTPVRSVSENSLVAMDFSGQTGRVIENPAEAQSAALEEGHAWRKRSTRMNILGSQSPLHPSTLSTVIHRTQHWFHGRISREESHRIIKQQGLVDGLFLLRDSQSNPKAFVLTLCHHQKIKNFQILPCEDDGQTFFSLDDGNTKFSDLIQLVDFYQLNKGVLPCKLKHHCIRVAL

Variants of: B1
Details: with shd_human SHD

effect of a mutation on the interaction | Variant
increasing interaction strength | L1196M
increasing interaction strength | F1245C
decreasing interaction strength | I1250T

Variants of: B2
Details: with shf_human SHF

effect of a mutation on the interaction | Variant
increasing interaction strength | F1245C
decreasing interaction strength | I1250T
increasing interaction strength | L1196M

Variants of: B3
Details: with sh24a_human SH2D4A

effect of a mutation on the interaction | Variant
increasing interaction strength | L1196M
decreasing interaction strength | I1250T
increasing interaction strength | F1245C

Variants of: B4
Details: with slap1_human SLA

effect of a mutation on the interaction | Variant
decreasing interaction strength | I1250T
increasing interaction strength | F1245C
increasing interaction strength | L1196M

Variants of: B5
Details: with hsh2d_human HSH2D

effect of a mutation on the interaction | Variant
decreasing interaction strength | I1250T
increasing interaction strength | L1196M
increasing interaction strength | F1245C

Variants of: B6
Details: with pdli3_human PDLIM3, Q53GG5

effect of a mutation on the interaction | Variant
increasing interaction strength | F1245C
increasing interaction strength | L1196M
decreasing interaction strength | I1250T

Variants of: B7
Details: with lcp2_human LCP2, Q13094

effect of a mutation on the interaction | Variant
decreasing interaction strength | I1250T
increasing interaction strength | L1196M
increasing interaction strength | F1245C

Variants of: B8
Details: with grb10_human GRB10, Q13322

effect of a mutation on the interaction | Variant
increasing interaction strength | L1196M
decreasing interaction strength | I1250T
increasing interaction strength | F1245C

Reference: IntAct's records for PubMed 34606829
